In US10106589B2, “Compositions and methods for immunomodulation” (FUNDACIO INSTITUT D'INVESTIGACIO BIOMEDICA DE BELLVITGE …, priority 2011, dated 2018) one finds Apoptosis after treatment data, which are given here for one molecule.

This data set deals with human Mo-DCs. Briefly: Apoptosis determination (Annexin V / 7-ADD). The conditions noted are these: viability; treated and LPS-induced DCs. Type of data set: cell-based. On the set-up: key: (−) negligible; (+) low; (++) moderate; (+++) high. From the text: Double staining using with the fluorescent dyes Annexin V (Annexin V-PE Apoptosis Detection Kit I, BD Pharmigen, San Diego, Calif.) and 7-amino-actinomycin D (7-ADD) (BD Pharmigen), and flow cytometry analysis, was employed to assess the viability/apoptosis status of C4BP α7β1-, C4BP α7β0-, recC4BP α6β0-, or Factor H-treated and untreated Mo-DCs.

B1: C4BP (β^−): C4BP isoforms lacking beta chain: C4BP (α7β0) or C4BP (α6β0) (protein, UniProt P04003 49-597, looked up)
C4b-binding protein alpha …: NCGPPPTLSFAAPMDITLTETRFKTGTTLKYTCLPGYVRSHSTQTLTCNSDGEWVYNTFCIYKRCRHPGELRNGQVEIKTDLSFGSQIEFSCSEGFFLIGSTTSRCEVQDRGVGWSHPLPQCEIVKCKPPPDIRNGRHSGEENFYAYGFSVTYSCDPRFSLLGHASISCTVENETIGVWRPSPPTCEKITCRKPDVSHGEMVSGFGPIYNYKDTIVFKCQKGFVLRGSSVIHCDADSKWNPSPPACEPNSCINLPDIPHASWETYPRPTKEDVYVVGTVLRYRCHPGYKPTTDEPTTVICQKNLRWTPYQGCEALCCPEPKLNNGEITQHRKSRPANHCVYFYGDEISFSCHETSRFSAICQGDGTWSPRTPSCGDICNFPPKIAHGHYKQSSSYSFFKEEIIYECDKGYILVGQAKLSCSYSHWSAPAPQCKALCRKPELVNGRLSVDKDQYVEPENVTIQCDSGYGVVGPQSITCSGNRTWYPEVPKCEWETPEGCEQVLTGKRLMQCLPNPEDVKMALEVYKLSLEIEQLELQRDSARQSTLDKEL
Take B1: the Apoptosis after treatment result is recorded as “−”.
